other: UAF1-mRFP N/C localization (% of cells), nuclear/cytoplasmic (N/C) class data for 1 substance are collected here from paper PMC4326527.

This test deals with UAF1-mRFP (UniProt Q8TAF3). The experiment in a line: nuclear relocation assay. The note with it: 293T cells co-transfected with UAF1-mRFP; at least 100 cells per slide; three independent experiments; parent: est. 10; read off a plot.
Sequence of UniProt Q8TAF3 (Q8TAF3 whole entry): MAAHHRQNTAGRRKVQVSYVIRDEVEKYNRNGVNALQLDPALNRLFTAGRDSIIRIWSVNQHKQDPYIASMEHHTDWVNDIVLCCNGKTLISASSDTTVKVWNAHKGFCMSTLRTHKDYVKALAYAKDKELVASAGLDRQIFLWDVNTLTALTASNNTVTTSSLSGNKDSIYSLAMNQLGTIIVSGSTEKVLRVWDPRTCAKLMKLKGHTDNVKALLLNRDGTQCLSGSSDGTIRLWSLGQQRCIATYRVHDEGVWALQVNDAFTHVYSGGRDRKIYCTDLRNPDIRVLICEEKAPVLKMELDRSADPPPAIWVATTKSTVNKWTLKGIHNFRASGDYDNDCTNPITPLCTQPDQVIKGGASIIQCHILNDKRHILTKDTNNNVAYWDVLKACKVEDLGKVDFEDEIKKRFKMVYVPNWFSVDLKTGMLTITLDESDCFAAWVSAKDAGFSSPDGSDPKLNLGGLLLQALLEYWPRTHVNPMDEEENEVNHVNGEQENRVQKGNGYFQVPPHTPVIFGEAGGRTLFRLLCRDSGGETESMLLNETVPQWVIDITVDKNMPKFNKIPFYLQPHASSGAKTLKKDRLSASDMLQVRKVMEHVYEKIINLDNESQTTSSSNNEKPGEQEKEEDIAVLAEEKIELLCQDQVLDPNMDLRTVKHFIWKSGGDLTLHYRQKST

For YFP-USP1(del420-520) S313D, the other: UAF1-mRFP N/C localization (% of cells), nuclear/cytoplasmic (N/C) class is 12 % of cells.
